Here are results for 35 molecules from patent US20110118447A1.

Changes are numbered by the printed parent chain. Numbers in names are those of the source.

B1: C5A (XPA23) VH F35D (antibody, V domains shown)
VH: EVQLLESGGGLVQPGGSLRLSCAASGFTFSKYFMDWVRQAPGKGLEWVSVISPSGGMTRYADSVKGRFTISRDNSKNTLYLQMNSLRAEDTAVYYCARVGYGGNSDYWGQGTLVTVSS
VL: DIQMTQSPSSVSASVGDRLTIICRASQDINRWLAWYQQTPGNAPKLLIHSATSLQSGVPSRFSGSGSGTDFTLTINSLQPEDFATYYCQQADSFPLTFGGGTKVEIK
B2: C5A (XPA23) VH I51H (antibody, V domains shown)
VH: B1 VH with D35F, I51H
VL: B1 VL
B3: C5A (XPA23) VH F33I (antibody, V domains shown)
VH: B1 VH with F33I, D35F
VL: B1 VL
B4: C5A (XPA23) VH F35K (antibody, V domains shown)
VH: B1 VH with D35K
VL: B1 VL
B5: C5A (XPA23) VH P53N (antibody, V domains shown)
VH: B1 VH with D35F, P53N
VL: B1 VL
B6: C5A (XPA23) VH I51D (antibody, V domains shown)
VH: B1 VH with D35F, I51D
VL: B1 VL
B7: C5A (XPA23) VH P53S (antibody, V domains shown)
VH: B1 VH with D35F, P53S
VL: B1 VL
B8: C5A (XPA23) VH I51S (antibody, V domains shown)
VH: B1 VH with D35F, I51S
VL: B1 VL
B9: C5A (XPA23) VH I51R (antibody, V domains shown)
VH: B1 VH with D35F, I51R
VL: B1 VL
B10: C5A (XPA23) VH S54K (antibody, V domains shown)
VH: B1 VH with D35F, S54K
VL: B1 VL
B11: C5A (XPA23) VH P53Y (antibody, V domains shown)
VH: B1 VH with D35F, P53Y
VL: B1 VL
B12: C5A (XPA23) VH S54T (antibody, V domains shown)
VH: B1 VH with D35F, S54T
VL: B1 VL
B13: C5A (XPA23) VH F35T (antibody, V domains shown)
VH: B1 VH with D35T
VL: B1 VL
B14: C5A (XPA23) VH I51E (antibody, V domains shown)
VH: B1 VH with D35F, I51E
VL: B1 VL
B15: C5A (XPA23) VH F35Y (antibody, V domains shown)
VH: B1 VH with D35Y
VL: B1 VL
B16: C5A (XPA23) VH P53E (antibody, V domains shown)
VH: B1 VH with D35F, P53E
VL: B1 VL
B17: C5A (XPA23) VH S54R (antibody, V domains shown)
VH: B1 VH with D35F, S54R
VL: B1 VL
B18: C5A (XPA23) VH S52T (antibody, V domains shown)
VH: B1 VH with D35F, S52T
VL: B1 VL
B19: C5A (XPA23) VH S54E (antibody, V domains shown)
VH: B1 VH with D35F, S54E
VL: B1 VL
B20: C5A (XPA23) VH P53K (antibody, V domains shown)
VH: B1 VH with D35F, P53K
VL: B1 VL
B21: C5A (XPA23) VH V50N (antibody, V domains shown)
VH: B1 VH with D35F, V50N
VL: B1 VL
B22: C5A (XPA23) VH I51T (antibody, V domains shown)
VH: B1 VH with D35F, I51T
VL: B1 VL
B23: C5A (XPA23) VH I51K (antibody, V domains shown)
VH: B1 VH with D35F, I51K
VL: B1 VL
B24: C5A (XPA23) VH I51N (antibody, V domains shown)
VH: B1 VH with D35F, I51N
VL: B1 VL
B25: C5A (XPA23) VH V50T (antibody, V domains shown)
VH: B1 VH with D35F, V50T
VL: B1 VL
B26: C5A (XPA23) VH P53Q (antibody, V domains shown)
VH: B1 VH with D35F, P53Q
VL: B1 VL
B27: C5A (XPA23) VH S54N (antibody, V domains shown)
VH: B1 VH with D35F, S54N
VL: B1 VL
B28: C5A (XPA23) VH I51Y (antibody, V domains shown)
VH: B1 VH with D35F, I51Y
VL: B1 VL
B29: C5A (XPA23) VH F35N (antibody, V domains shown)
VH: B1 VH with D35N
VL: B1 VL
B30: C5A (XPA23) VH F33P (antibody, V domains shown)
VH: B1 VH with F33P, D35F
VL: B1 VL
B31: C5A (XPA23) VH F33W (antibody, V domains shown)
VH: B1 VH with F33W, D35F
VL: B1 VL
B32: C5A (XPA23) VH S54D (antibody, V domains shown)
VH: B1 VH with D35F, S54D
VL: B1 VL
B33: C5A (XPA23) VH F33L (antibody, V domains shown)
VH: B1 VH with F33L, D35F
VL: B1 VL
B34: C5A (XPA23) VH I51Q (antibody, V domains shown)
VH: B1 VH with D35F, I51Q
VL: B1 VL
B35: C5A (XPA23) VH F35S (antibody, V domains shown)
VH: B1 VH with D35S
VL: B1 VL

The first assay addresses binding partner of C5A (XPA23). Put plainly: Biacore. For orientation: In SPR one partner is held on a chip, and binding of the other changes the refractive index at the surface.
B1: the fold affinity vs original stood at 0.06 fold.
For B2, the fold affinity vs original was 0.08 fold.
Turning to B3, the fold difference in affinity vs original is 0.75 fold.
Consider B4, for which the fold affinity vs original is 0.68 fold.
In the case of B5, the fold affinity vs original was determined as 0.06 fold.
Regarding B6, the fold affinity vs original amounted to 0.07 fold.
As to B7, the fold affinity vs original was determined as 0.03 fold.
As to B8, the fold affinity vs original is 0.69 fold.
As for B9, the fold affinity vs original turned out to be 0.1 fold.
Consider B10, for which the fold affinity vs original came out at 1.53 fold.
As to B11, the fold affinity vs original was found to be 0.03 fold.
In the case of B12, the fold difference in affinity vs original was determined as 0.14 fold.
For the molecule B13, the fold difference in affinity vs original came out at 0.74 fold.
In the case of B14, the fold affinity vs original is 0.73 fold.
In the case of B15, the fold affinity vs original came out at 0.85 fold.
Regarding B16, the fold affinity vs original turned out to be 0.03 fold.
Same read-out and setting: the figure for B17 is 1.43 fold.
Consider B18, for which the fold difference in affinity vs original was determined as 0.04 fold.
With B19, the fold affinity vs original was found to be 0.03 fold.
For the molecule B20, the fold affinity vs original stood at 0.04 fold.
Same read-out and setting: the figure for B21 is 0.03 fold.
B22: the fold difference in affinity vs original was determined as 0.86 fold.
As to B23, the fold affinity vs original is 0.11 fold.
B24: the fold affinity vs original is 0.68 fold.
Regarding B25, the fold difference in affinity vs original amounted to 0.03 fold.
As to B26, the fold affinity vs original worked out at 0.03 fold.
Consider B27, for which the fold affinity vs original came to 0.08 fold.
In the case of B28, the fold affinity vs original was found to be 1.75 fold.
B29: the fold affinity vs original was found to be 0.86 fold.
B30: the fold difference in affinity vs original came to 0.91 fold.
For the molecule B31, the fold affinity vs original worked out at 0.79 fold.
B32: the fold affinity vs original was found to be 0.12 fold.
For the molecule B33, the fold difference in affinity vs original amounted to 0.88 fold.
Take B34: the fold affinity vs original amounted to 0.83 fold.
In the case of B35, the fold affinity vs original was determined as 0.09 fold.

The target in a further assay is binding partner of C5A (XPA23). Description: Biacore K-off.
With B3, the fold difference in affinity vs original came to 0.75 fold.
As for B30, the fold difference in affinity vs original was determined as 0.91 fold.
As to B31, the fold difference in affinity vs original was 0.79 fold.
Still for that read-out and setting: the figure for B33 is 0.88 fold.

Another assay concerns the target binding partner of C5A (XPA23). Put plainly: Biacore, K-off.
As for B1, the fold difference in affinity vs original was found to be 0.06 fold.
Regarding B2, the fold difference in affinity vs original came out at 0.08 fold.
Regarding B4, the fold difference in affinity vs original is 0.68 fold.
Turning to B5, the fold difference in affinity vs original worked out at 0.06 fold.
In the case of B6, the fold difference in affinity vs original is 0.07 fold.
For the molecule B7, the fold difference in affinity vs original is 0.03 fold.
Same read-out and setting: the value for B8 was 0.69 fold; that for B9 was 0.1 fold.
With B10, the fold difference in affinity vs original came to 1.53 fold.
For B11, the fold difference in affinity vs original worked out at 0.03 fold.
For the molecule B12, the fold difference in affinity vs original stood at 0.14 fold.
B13: the fold difference in affinity vs original amounted to 0.74 fold.
For B14, the fold difference in affinity vs original is 0.73 fold.
B15: the fold difference in affinity vs original was 0.85 fold.
Turning to B16, the fold difference in affinity vs original stood at 0.03 fold.
As to B17, the fold difference in affinity vs original came to 1.43 fold.
Regarding B18, the fold difference in affinity vs original is 0.04 fold.
Consider B19, for which the fold difference in affinity vs original was 0.03 fold.
As for B20, the fold difference in affinity vs original was 0.04 fold.
Turning to B21, the fold difference in affinity vs original came to 0.03 fold.
Still for that read-out and setting: the figure for B22 is 0.86 fold; for B23 it is 0.11 fold.
On to B24, for which the fold difference in affinity vs original amounted to 0.68 fold.
For B25, the fold difference in affinity vs original worked out at 0.03 fold.
Take B26: the fold difference in affinity vs original came to 0.03 fold.
For B27, the fold difference in affinity vs original amounted to 0.08 fold.
As for B28, the fold difference in affinity vs original worked out at 1.75 fold.
With B29, the fold difference in affinity vs original was determined as 0.86 fold.
Same read-out and setting: the figure for B32 is 0.12 fold.
In the case of B34, the fold difference in affinity vs original amounted to 0.83 fold.
The same measure, in the same setting: the value for B35 was 0.09 fold.
